According to paper PMC3819817:
“And” between values parts separate entries of the source, which are not always exact repeats. Equal values may be shown once. Read-outs that look alike come from different tables or passages of the source.

Columns and labels:
[1] = target: recombinant Arabidopsis thaliana Nfu2 without the plastidial targeting sequence (Arabidopsis thaliana) (UniProt Q93W20); assay: SEC
[2] = target: recombinant Arabidopsis thaliana Nfu2 without the plastidial targeting sequence (Arabidopsis thaliana) (UniProt Q93W20); assay: SEC; remark: listed apart in the source

stoichiometry N [1]: 2 | stoichiometry N [2]: 4 and 2
Substance: recombinant Arabidopsis thaliana Nfu2 without the plastidial targeting sequence (from UniProt Q93W20 73-235) (natural protein)
